Measurements as given in patent US20120101255A1.

Molecular target: Recombinant Cx43CT (carboxyl terminal domain of rat connexin43, residues 255-382, preceded by GPLG) (rat) (UniProt P08050)
Test: SPR on the carboxyl terminal domain of Cx43, peptide at 1.0 mM

Recombinant Cx43CT (carboxyl terminal domain of rat connexin43, residues 255-382, preceded by GPLG) (rat), sequence (P08050 other isoform, or with tags, fused parts or gaps limits assumed): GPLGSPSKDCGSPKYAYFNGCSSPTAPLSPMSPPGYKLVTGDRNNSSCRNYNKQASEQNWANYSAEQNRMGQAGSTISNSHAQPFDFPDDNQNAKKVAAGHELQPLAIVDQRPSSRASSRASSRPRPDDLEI

- Response (arbitrary units): 4.6
Substance: AcRNP-NH2 (Identification No. 2502) (peptide)
